Laboratory results as given in the DeepSol protein solubility set.

Experiment: soluble on expression in E. coli; label from the status in PepcDB or PDB records

Soluble on expression in E. coli, not soluble:
MGSDKIHHHHHHSCGGKKNSGQLSDTAVQIVKPEFPQIVPFETGIETEQEILLSEIADSIRYIPLETNNKCLIRGLKGSNIIRTKEYFFLPWIDKLFQYTKDGKFIRTLGRKGGGPGEFNWIMQIDVDEKKGLVYMLTTTGKINIYSMETGKFIRAMKVPNIEVSEFAMLRVQDTIAATFMRNNNGKRKERIYLSNLKGDTLKIFNRWDLFDLNSKYRWMISSDIDRYMFHYKSHTCYKEYYNDTLFTITQETLEPRYIFQMGKYSLPIECRFEYLNGDGKRFQEVAAPYIQYNTIETDSYIFMPYSNWAGEKEQERQMAIYDKKAKNCFKVSTGHIKNDLTPGLPLRPITALDSHTLLYVWEAPELLEKAEKTPSILQIEPLKGLNEDDNPVMMIVYLKQP
MTDNITDEAIIDKAQELHDKAYDKAVYERDEANGVHANQNNPEVLIFNDGPTDDEIREKLSWVVDRFRETLKPFPRDFDPLIDKIKAIEAAFGQEEDSFGDPDLGMIETSANYMAQWEGALSTNFNEKFLGPMPIIAANHGKLASYLRDHAEKMKSIYESGRQDALNIAEKGVEAIDAINDSNGKDLMIALAVLIAAGTLAGPALGVASAPLAVQLANAAVIAGSVLGGPFVEKGEEVPLGGDTVEEVMNNVRDALDASAKRIFEEEGYLLDALKKSEEEVFPQTSGNTDDHTALLPQQPKVFTATGEELTAGLVQFGSEDGTDGGGGDRGSYVGDDPPDNFEGSVFVPPEKKTATG
MIQDKEVTLEYVSSLDFWYCKRCKANIGGHRSSCSFCKNPREVTEAKQELITYPQPQKTSIPAPLEKQPNQPLRPADKEPEPRKREEGQESRLGHQKREAERYLPPSRREGPTFRRDRERESWSGETRQDGESKTIMLKRIYRSTPPEVIVEVLEPYVRLTTANVRIIKNRTGPMGHTYGFIDLDSHAEALRVVKILQNLDPPFSIDGKMVAVNLATGKRRNDSGDHSDHMHYYQGKKYFRDRRGGGRNSDWSSDTNRQGQQSSSDCYIYDSATGYYYDPLAGTYYDPNTQQEVYVPQDPGLPEEEEIKEKKPTSQGKSSSKKEMSKRDGKEKKDRGVTRFQENASEGKAPAEDVFKKPLPPTVKKEESPPPPKVVNPLIGLLGEYGGDSDYEEEEEEEQTPPPQPRTAQPQKREEQTKKENEEDKLTDWNKLACLLCRRQFPNKEVLIKHQQLSDLHKQNLEIHRKIKQSEQELAYLERREREGKFKGRGNDRREKLQSFDSPERKRIKYSRETDSDRKLVDKEDIDTSSKGGCVQQATGWRKGTGLGYGHPGLASSEEAEGRMRGPSVGASGRTSKRQSNETYRDAVRRVMFARYKELD
MAHHHHHHMNIFKYYNIYLPLSVLGFVHIEVKSNNDVLNNSLSSISFNNYIFGRILSTNESADVVVEKPMEEKLNNTNENIDETHEESDPSNSTEETVKKCISNILDMTCDSRGHALILANNILRSQNVNEEVIILNEHDLLSQFLNGDVSNIFSDNKSIFKDLLDKDICSTYEVNFDQNSKCTLLTNKNDLQISEDILLLGNESEETNKLLDLWKRVMKNEESKLYLLKRNLYQQHLKLRNRSRLSHDKLNNILNECNVLVKKYNNNYDKTINNIFKEWSTVTPHNIFEFKLFIKACRLTWRKSIKNLHAEYTELLKRSFN
MSRTYLELSQDDGSAHKFYEVTVQGQVVTVRYGRIGAAGQTQTSTFPTAQKAEAAAAKKIGEKVRKGYEAAVQGQRAPRAVSRRQVASAPSTARAVAPVLWRFRTGSAAFGIHIDEDRCWVGNQAGDVYTLAHGGEVLARYQLPDGVKCLVADDFWIYAGCDDGRVYDLSSKLPFAAYDIAADVDIFWLDIHEGVLNVADRAGRLTVIDHEDEHQWSRGGRGEHAWMVRADDRAVYHGHTRGVTAHSPDGGVELWHTPTQGAVLFGWQEDDAVYAGTARHTVQRLSKATGGIEATYHCDSPVYSCATSPGGRFVFAGDSASSVYCFDRDGTRLWKLGTGGGSALSMQYRDERLFLVTTDGSLVCVDASEAAVTAAQQGSVPVVRDVKLAATLPTYAPATAATAVTTVTVAPAGSVVVECVQENGRTRIHVVTEGYDRSWNVQFPRAIREPGARYVVDALHAASGGFYRVRGDIRRLRLEHHHHHH
MHIIFDTSGFLSGLQLSLDRVYTTQEVINEIKDKYSRFNLEIAISSGKVIIMKPSTRSVEKVTKVLNLTKERKLSNTDISVIALALDLQPSIVFTDDLSVQNILKQLGIQFSSVKINKKVEKSFKFKYVCVNCKREFNIDHGECPYCGGKVVKRRIMELEHHHHHH
MGSDKIHHHHHHYAVQPKDDKKENEALQTSTEEHLPLLTINGTNASSSFIVNSEALLGKEITITAPNGFTVTPTVIAANSGKQKVKVTLNSTKRLTEGKIILRSGDVRSYLKVKGYGTALPVKDIAASPAYKKGNDKEFTKAFTPNSKGYTIEFKIKTDDSEKSFYPYFVNEKGYGFKAYITSNEIGLFNAYKKEITNPATNGKAGGKGKFYNNDGQAHIYRFAITPDNRAFIYRDGIPVDSVRIIDYAPQPNFAEKVGKPVENLLKNPNFEGEFDINPETKLVSRVEGWDVVISDRWNSEQQILPEEIDNNQDLDNHVFEIRPYKWAAGWSDGILMQVVDVVPNENYTLSALLKGGIAKKEGKLTGKMIIEEVQDPEKKVITEIASDNWETYSMDYTTSAECNQIRVSFTVGRGGWGNDIGAVRVDNAKLTGTSRTYSPKFGFIDNTADVEYFTIDESGAYAPAQPEITINIED
MSLKQNGGLTDLTGSVAFGTTPLSPGVTDRLYYPSRRNKGAALSDDKACFLSVPRSGGKGPPPEYDGAGRVTLFSGYLFDRERLARKLGGDHSWPDVRLAAAWIAHHGLDRLADLAGDYALSHWDPGARRLFLAVAPMGSRLLYWHRVGTICHFATTVAGLHRIPDIPRVVDPLHLTARFSAMVGDPTRTVYKDIHQIVPGDMLVADVNANRYVPLWRPDAERRLRLANEREYLEAADELLERAVARRLQAAHAPAFLSSGGLDSAAMLTTASRLAGDRKVRSYTIVPSPGLCVTADRGWYGDERAKVADLAASHTNLDIRLCHSLVPSPLETNPAHLFMATGLPCMIANQIGWLDIAFQQMQQAGHDAVLSGQSGNFTFSYDGNLCFADLIREGRPLTALRLLAQVARYKQQGFAPMVRHRVVVPLLPDAFYYGQRRWRGRPHPLADRTLTRPGWREKVGLDDYLADHGEQPFQERDSRSRQQIIHFMLKRRAMTLPNAHALETVRGTHYRDVYADRDLLEFILAIPRDQFILDGRNRSLARRLLAMRGVPDSIVNERAIGQEGHHHHHH
MPEFIIVEGNNDLGEFFQIDGELFSDNELLENLKKWREWEVPVIIDDWCNRILNEDETEILYFPTHEDKMNYIRVEKDLEPLYHTSNKIYATISKSEWLELLN
MIRKNKWLRFQTVCRYIPLSLKNHNRLVIFVCQRIEWRYIFSTNTGHPLKNTCEMTGTDFSTDGLMRRYVTGGNNQWHTVASLHMTIMMNRIGTVADRQPKARKVKHGEMTLEHHHHHH
MGSDKIHHHHHHMNFPELKLSQTERDFNFDFAILEHDLSYFFEKRCLDYALEHINRFNHKIKDNLYNVRPLILKEALISLTCDLASVSFYHYLNMITFVNLRKDILHYLTTTTLTNDDFMPLLESIVNNYFSNLDTLDIPIDGTRLSKQVALVVYYIDNHCDEPLRANTILEELTLDPEYTKRKFRKELGFTINFYIRHAKLQRAKQLLINTHLPIGEIAERINFYNSAEFARQFQKEFDITPSKYRELNQIFYKEE

Soluble on expression in E. coli, soluble:
MMNSIKFIFLGDVYGKAGRNIIKNNLAQLKSKYQADLVIVNAENTTHGKGLSLKHYEFLKEAGVNYITMGNHTWFQKLDLAVVINKKDLVRPLNLDTSFAFHNLGQGSLVFEFNKAKIRITNLLGTSVPLPFKTTNPFKVLKELILKRDCDLHIVDFHAETTSEKNAFCMAFDGYVTTIFGTHTHVPSADLRITPKGSAYITDVGMCGPGFGSVIGANPEQSIRLFCAGSREHFEVSKCGAQLNGVFFEVDVNTKKVIKTEAIRIVEDDPRYLKQDYFNLI
MAPPTPHLAVRGSDGTLLLHGPPNCQESSAFQRDDRQGRYMTFSNDGTLFAWCNGSQVTVLKVPSGDLVKSFDLPKTTALEFSPLNKVLATWQQYTKTQDNPQGEANLQLWDLQTGACMKAFYQKKMTGWCPSWADDESISVRNVNNELHFFENNNFETIANKLHLQKVSEFALSPGSQPSKVAVYVPGSKGAPSFVRLYQYPNFGGPTCALANKSFFKADKVNMLWNKKATAVLVTASTEVDKTGASYYGEQTLHYVATNGESAVVQLPKNGPIYDVSWSPNSTEFCVVYGFMPAKATVFNNKCESVFDFGTGPRNAAFYSPQGHILVLAGFGNLRGQMEVWDVKKYKQVSKPQAEDTTHFSWCPDGEHIVTATCSPRLRASNGYKIWHYTGTVLYKHETPSGKELWEVLWQPFPAGVFPERAVKYQALPSELGSTEAKPAQAYRPPALRNKPQTASSKLHEEEPPQNMKPGAAGEKQPSKAALKNQKRREAKKAAKQENKPDEAPPPAADPAPVSHVTSSCGDPETDKKIKNLKKKLKAIDELKEQQAAGKVMQKNQLEKMQKEAQLLKELEDLELGL
PAAGPSRVRQNFHPDSEAAINRQINLELYASYVYLSMAYYFSRDDVALNNFSRYFLHQSREETEHAEKLMRLQNQRGGRIRLQDIKKPEQDDWESGLHAMECALLLEKNVNQSLLELHALASDKGDPHLCDFLETYYLNEQVKSIKELGDHVHNLVKMGAPDAGLAEYLFDTHTLGNENKQN
MPQITLSAEVQPEQMGQRLDQTLAELFPEYSRSRLKTWIEADLVKLNDRITNIPREKVLGGERIEIIVEVEDETRFEAENIPLNIVYEDDDIIVINKPKDLVVHPGAGNPNGTVLNALLYHYPPIVEVPRAGIVHRLDKDTTGLMVVAKTIPAQTKLVRDLQKRKITREYEAVASGIMTKGGTVDQPMARHATKRTLMAVHPMGKPAVTHYRIMENYRNYTRLRLRLETGRTHQIRVHMAHIAHPLLGDQTYGGRPRPPKNASEDFMEVLRNFKRQALHAVMLRLAHPITGEMMEWYAPLPDDFVELLNALKADYLEHQDELDY
MSLNEVHSIHGHTLLLITKPSLQATALLQHLKQSLAITGKLHNIQRSLDDISSGSIILLDMMEADKKLIHYWQDTLSRKNNNIKILLLNTPEDYPYRDIENWPHINGVFYAMEDQERVVNGLQGVLRGECYFTQKLASYLITHSGNYRYNSTESALLTHREKEILNKLRIGASNNEIARSLFISENTVKTHLYNLFKKIAVKNRTQAVSWANDNLREGHHHHHH
MVLSHAVSESDVSVHSTFASRYVRTSLPRFKMPENSIPKEAAYQIINDELMLDGNPRLNLASFVTTWMEPECDKLIMSSINKNYVDMDEYPVTTELQNRCVNMIAHLFNAPLEEAETAVGVGTVGSSEAIMLAGLAFKRKWQNKRKAEGKPVDKPNIVTGANVQVCWEKFARYFEVELKEVKLSEGYYVMDPQQAVDMVDENTICVAAILGSTLNGEFEDVKLLNDLLVEKNKETGWDTPIHVDAASGGFIAPFLYPELEWDFRLPLVKSINVSGHKYGLVYAGIGWVIWRNKEDLPEELIFHINYLGADQPTFTLNFSKGSSQVIAQYYQLIRLGHEGYRNVMENCRENMIVLREGLEKTERFNIVSKDEGVPLVAFSLKDSSCHTEFEISDMLRRYGWIVPAYTMPPNAQHITVLRVVIREDFSRTLAERLVIDIEKVMRELDELPSRVIHKISLGQEKSESNSDNLMVTVKKSDIDKQRDIITGWKKFVADRKKTSGIC
MRVAFFGTPLWAVPVLDALRKRHQVVLVVSQPDKPQGRGLRPAPSPVARYAEAEGLPLLRPARLREEAFLEALRQAAPEVAVVAAYGKLIPKEALDIPPHGFLNLHPSLLPKYRGAAPVQRALLAGERETGVSIMRLDEGLDTGPLYAVWRTPILPDEDAVALGNRLRDKGVELLLEVLERLPELTPRPQEGEASYAPPLSKEEGRLDFGESAEALYRRHRAVQPWPGSYFFHRGQRVKALRLRPEPGEGEPGVVARVGPEGVVVGTASGLLLLLEVQPEGRRAMPAADWARGYGVAPGTRLGQV
